± gives the uncertainty stated by the source.
Test: abundance fitness (aPCA) (normalised: wild type 0, dead -1); higher = more abundant; growth selection in yeast, the domain comes from the species named
Details: Homo sapiens

| Substance | abundance fitness |
| --- | --- |
| Transcriptional activator Myb M189K, P10242 | 0.038 ± 0.14 |
| Transcriptional activator Myb M189L, P10242 | 0.073 ± 0.083 |
| Transcriptional activator Myb M189N, P10242 | -0.155 ± 0.14 |
| Transcriptional activator Myb M189P, P10242 | -0.386 ± 0.17 |
| Transcriptional activator Myb M189R, P10242 | -0.303 ± 0.064 |
| Transcriptional activator Myb M189S, P10242 | -0.303 ± 0.065 |
| Transcriptional activator Myb M189T, P10242 | -0.181 ± 0.085 |
| Transcriptional activator Myb M189V, P10242 | -0.02 ± 0.064 |
| Transcriptional activator Myb M189W, P10242 | -0.36 ± 0.093 |
| Transcriptional activator Myb M189Y, P10242 | -0.535 ± 0.15 |
| Transcriptional activator Myb N179A, P10242 | 0.001 ± 0.053 |
| Transcriptional activator Myb N179C, P10242 | -0.022 ± 0.088 |
| Transcriptional activator Myb N179E, P10242 | 0.016 ± 0.069 |
| Transcriptional activator Myb N179F, P10242 | -0.027 ± 0.12 |
| Transcriptional activator Myb N179G, P10242 | 0.004 ± 0.041 |
| Transcriptional activator Myb N179H, P10242 | -0.04 ± 0.094 |
| Transcriptional activator Myb N179I, P10242 | 0.127 ± 0.14 |
| Transcriptional activator Myb N179L, P10242 | 0.029 ± 0.059 |
| Transcriptional activator Myb N179P, P10242 | -0.489 ± 0.097 |
| Transcriptional activator Myb N179Q, P10242 | -0.025 ± 0.078 |
| Transcriptional activator Myb N179S, P10242 | -0.075 ± 0.061 |
| Transcriptional activator Myb N179T, P10242 | 0.026 ± 0.075 |

| Substance | abundance fitness |
| --- | --- |
| Transcriptional activator Myb N179W, P10242 | -0.169 ± 0.066 |
| Transcriptional activator Myb N179Y, P10242 | -0.075 ± 0.1 |
| Transcriptional activator Myb N183A, P10242 | 0.037 ± 0.094 |
| Transcriptional activator Myb N183C, P10242 | -0.203 ± 0.12 |
| Transcriptional activator Myb N183D, P10242 | 0.142 ± 0.18 |
| Transcriptional activator Myb N183E, P10242 | 0.011 ± 0.098 |
| Transcriptional activator Myb N183F, P10242 | -0.176 ± 0.14 |
| Transcriptional activator Myb N183G, P10242 | -0.067 ± 0.063 |
| Transcriptional activator Myb N183H, P10242 | 0.141 ± 0.17 |
| Transcriptional activator Myb N183I, P10242 | -0.022 ± 0.11 |
| Transcriptional activator Myb N183K, P10242 | -0.192 ± 0.099 |
| Transcriptional activator Myb N183L, P10242 | -0.074 ± 0.084 |
| Transcriptional activator Myb N183M, P10242 | 0.068 ± 0.11 |
| Transcriptional activator Myb N183P, P10242 | -1.09 ± 0.14 |
| Transcriptional activator Myb N183Q, P10242 | -0.094 ± 0.13 |
| Transcriptional activator Myb N183R, P10242 | -0.153 ± 0.051 |
| Transcriptional activator Myb N183S, P10242 | -0.019 ± 0.085 |
| Transcriptional activator Myb N183T, P10242 | 0.101 ± 0.086 |
| Transcriptional activator Myb N183W, P10242 | -0.198 ± 0.084 |
| Transcriptional activator Myb N183Y, P10242 | -0.343 ± 0.1 |
| Transcriptional activator Myb N186A, P10242 | -0.081 ± 0.07 |
| Transcriptional activator Myb N186C, P10242 | -0.028 ± 0.089 |

| Substance | abundance fitness |
| --- | --- |
| Transcriptional activator Myb N186E, P10242 | 0.037 ± 0.079 |
| Transcriptional activator Myb N186F, P10242 | -0.055 ± 0.13 |
| Transcriptional activator Myb N186G, P10242 | -0.162 ± 0.055 |
| Transcriptional activator Myb N186H, P10242 | -0.139 ± 0.19 |
| Transcriptional activator Myb N186I, P10242 | 0.027 ± 0.1 |
| Transcriptional activator Myb N186K, P10242 | 0.065 ± 0.1 |
| Transcriptional activator Myb N186L, P10242 | -0.016 ± 0.071 |
| Transcriptional activator Myb N186M, P10242 | -0.007 ± 0.11 |
| Transcriptional activator Myb N186P, P10242 | -0.804 ± 0.14 |
| Transcriptional activator Myb N186R, P10242 | -0.047 ± 0.059 |
| Transcriptional activator Myb N186S, P10242 | -0.062 ± 0.062 |
| Transcriptional activator Myb N186V, P10242 | -0.017 ± 0.072 |
| Transcriptional activator Myb N186Y, P10242 | -0.154 ± 0.15 |
| Transcriptional activator Myb P174A, P10242 | -0.359 ± 0.066 |
| Transcriptional activator Myb P174C, P10242 | -0.239 ± 0.15 |
| Transcriptional activator Myb P174D, P10242 | -0.224 ± 0.1 |
| Transcriptional activator Myb P174E, P10242 | -0.02 ± 0.098 |
| Transcriptional activator Myb P174F, P10242 | -0.298 ± 0.17 |
| Transcriptional activator Myb P174G, P10242 | -0.462 ± 0.056 |
| Transcriptional activator Myb P174H, P10242 | -0.479 ± 0.12 |
| Transcriptional activator Myb P174I, P10242 | -0.339 ± 0.14 |
| Transcriptional activator Myb P174K, P10242 | -0.086 ± 0.11 |

| Substance | abundance fitness |
| --- | --- |
| Transcriptional activator Myb P174L, P10242 | -0.443 ± 0.082 |
| Transcriptional activator Myb P174M, P10242 | -0.329 ± 0.093 |
| Transcriptional activator Myb P174N, P10242 | -0.255 ± 0.16 |
| Transcriptional activator Myb P174R, P10242 | -0.251 ± 0.052 |
| Transcriptional activator Myb P174S, P10242 | -0.338 ± 0.088 |
| Transcriptional activator Myb P174T, P10242 | -0.184 ± 0.074 |
| Transcriptional activator Myb P174V, P10242 | -0.127 ± 0.073 |
| Transcriptional activator Myb P174Y, P10242 | -0.643 ± 0.12 |
| Transcriptional activator Myb Q157L, P10242 | -0.081 ± 0.22 |
| Transcriptional activator Myb Q195A, P10242 | -0.045 ± 0.079 |
| Transcriptional activator Myb Q195C, P10242 | -0.043 ± 0.12 |
| Transcriptional activator Myb Q195D, P10242 | -0.19 ± 0.13 |
| Transcriptional activator Myb Q195E, P10242 | 0.006 ± 0.15 |
| Transcriptional activator Myb Q195F, P10242 | -0.244 ± 0.15 |
| Transcriptional activator Myb Q195G, P10242 | -0.074 ± 0.074 |
| Transcriptional activator Myb Q195H, P10242 | -0.269 ± 0.16 |
| Transcriptional activator Myb Q195I, P10242 | -0.19 ± 0.15 |
| Transcriptional activator Myb Q195K, P10242 | -0.388 ± 0.41 |
| Transcriptional activator Myb Q195L, P10242 | -0.057 ± 0.091 |
| Transcriptional activator Myb Q195M, P10242 | -0.199 ± 0.16 |
| Transcriptional activator Myb Q195N, P10242 | 0.107 ± 0.29 |
| Transcriptional activator Myb Q195P, P10242 | -0.214 ± 0.15 |

| Substance | abundance fitness |
| --- | --- |
| Transcriptional activator Myb Q195R, P10242 | 0.091 ± 0.07 |
| Transcriptional activator Myb Q195S, P10242 | -0.054 ± 0.1 |
| Transcriptional activator Myb Q195V, P10242 | 0.043 ± 0.081 |
| Transcriptional activator Myb Q195W, P10242 | -0.282 ± 0.14 |
| Transcriptional activator Myb Q195Y, P10242 | -0.26 ± 0.22 |
| Transcriptional activator Myb Q200A, P10242 | 0.011 ± 0.068 |
| Transcriptional activator Myb Q200C, P10242 | -0.18 ± 0.11 |
| Transcriptional activator Myb Q200D, P10242 | -0.139 ± 0.11 |
| Transcriptional activator Myb Q200E, P10242 | -0.008 ± 0.082 |
| Transcriptional activator Myb Q200F, P10242 | -0.302 ± 0.11 |
| Transcriptional activator Myb Q200G, P10242 | 0.014 ± 0.049 |
| Transcriptional activator Myb Q200H, P10242 | 0.003 ± 0.13 |
| Transcriptional activator Myb Q200I, P10242 | -0.161 ± 0.11 |
| Transcriptional activator Myb Q200K, P10242 | 0.002 ± 0.088 |
| Transcriptional activator Myb Q200L, P10242 | -0.078 ± 0.067 |
| Transcriptional activator Myb Q200M, P10242 | -0.205 ± 0.088 |
| Transcriptional activator Myb Q200N, P10242 | 0.004 ± 0.11 |
| Transcriptional activator Myb Q200P, P10242 | 0.005 ± 0.1 |
| Transcriptional activator Myb Q200R, P10242 | 0.007 ± 0.048 |
| Transcriptional activator Myb Q200S, P10242 | -0.073 ± 0.06 |

Source: the Human Domainome abundance scans (Beltran et al. 2025)
